In article PMC3861647:

Target: MBP-RU678 (human)
Assay: ITC; MicroCal ITC200, 25 °C, HBS (10 mM HEPES, 150 mM NaCl, pH 7.4); cell: 50 μM MBP-RU678; syringe: 0.5 mM Srr1-BR or Srr2-BR; single binding mode

With “Srr1-BR (untagged recombinant binding region of Srr1) (domain or fragment)” the Kd was 69 µM and the stoichiometry N was 1.
“Srr2-BR (untagged recombinant binding region of Srr2) (domain or fragment)” showed a Kd of 12 µM and a stoichiometry N of 1.
